Reference: patent publication US20240132589A1 (ONCORESPONSE, published 2024)

B1: B2H1-55 (antibody, V domains shown)
VH: EVQLLESGGGLVQPGTSLTLSCAASGFSLSTYAMSWVRQAPGKGLEWIGWIYNDGSTYYAAWAKGRFTISKDTSKTTLYLQITSLRAEDTATYFCAREGDYIGYFNIWGQGTLVTVSS
VL: DVVMTQTPSSVSAALGGTVTIKCQASQSIGSNLAWYQLKPGQRPKLLIYAAATLASGGSSRFKGSGSGTDFTLTISSLEPADAATYYCQSYVSGSSDVAFGGGTEVVVK
notes: Humanized variant, human IgG1 / kappa; also called humanized variant B2H1-55; humanized LILRB2 antibody B2H1-55
B2: B2A-IgG1 (antibody)
heavy: not shown
light: DVVMTQTPSSVSAALGGTVTIKCQASQSIGSNLAWYQLKPGQRPKLLIYAAATLASGGSSRFKGSGSGTDFTLTISDLECADAATYYCQSYVSGSSDVAFGGGTEVVVKRTVAAPSVFIFPPSDEQLKSGTASVVCLLNNFYPREAKVQWKVDNALQSGNSQESVTEQDSKDSTYSLSSTLTLSKADYEKHKVYACEVTHQGLSSPVTKSFNRGEC
notes: Rabbit variable regions on human IgG1 / kappa constant regions; AF647-conjugated in some flow assays; also called B2A-IgG1 chimera; anti-LILRB2 B2A-IgG1
B3: B2A-IgG4 (antibody)
heavy: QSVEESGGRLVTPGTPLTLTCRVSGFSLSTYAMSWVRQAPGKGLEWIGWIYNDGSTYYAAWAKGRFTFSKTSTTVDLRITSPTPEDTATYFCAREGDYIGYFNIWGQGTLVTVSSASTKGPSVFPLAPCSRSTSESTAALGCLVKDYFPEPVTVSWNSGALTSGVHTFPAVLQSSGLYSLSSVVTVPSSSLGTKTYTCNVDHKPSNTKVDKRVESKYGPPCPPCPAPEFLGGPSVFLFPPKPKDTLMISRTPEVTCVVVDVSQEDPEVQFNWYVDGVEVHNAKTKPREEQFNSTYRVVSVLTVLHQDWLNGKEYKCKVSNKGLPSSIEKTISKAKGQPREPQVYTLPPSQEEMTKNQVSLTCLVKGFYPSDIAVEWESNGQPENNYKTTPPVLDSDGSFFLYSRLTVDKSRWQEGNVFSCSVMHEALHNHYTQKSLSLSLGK
light: B2 light
notes: Rabbit variable regions on human IgG4 / kappa constant regions; also called B2A-IgG4 chimera; Parent B2A-IgG4

Experiments:
[1] = target: T1, Human LILRA1 on transiently transfected HEK293-6E cells (human, UniProt O75019 17-489); test: flow cytometry, transiently transfected HEK293-6E cells
T1 construct: whole, on cells; also called hLILRA1
T1 sequence (O75019 17-489): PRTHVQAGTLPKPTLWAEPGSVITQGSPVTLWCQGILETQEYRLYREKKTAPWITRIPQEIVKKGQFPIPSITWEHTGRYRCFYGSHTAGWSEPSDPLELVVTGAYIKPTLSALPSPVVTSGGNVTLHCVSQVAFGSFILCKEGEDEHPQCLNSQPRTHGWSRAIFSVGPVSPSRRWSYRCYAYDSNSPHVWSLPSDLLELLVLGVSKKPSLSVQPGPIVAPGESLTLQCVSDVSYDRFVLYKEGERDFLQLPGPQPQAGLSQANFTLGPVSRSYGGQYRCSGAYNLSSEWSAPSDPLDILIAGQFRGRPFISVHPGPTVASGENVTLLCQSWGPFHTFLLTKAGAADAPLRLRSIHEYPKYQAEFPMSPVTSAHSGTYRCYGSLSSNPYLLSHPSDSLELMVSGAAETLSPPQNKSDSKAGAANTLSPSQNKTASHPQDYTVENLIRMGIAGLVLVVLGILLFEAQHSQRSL

[2] = target: T2, Human LILRA2 on transiently transfected HEK293-6E cells (human, UniProt Q8N149 24-483); test: as above
T2 construct: whole, on cells; also called hLILRA2
T2 sequence (Q8N149 24-483): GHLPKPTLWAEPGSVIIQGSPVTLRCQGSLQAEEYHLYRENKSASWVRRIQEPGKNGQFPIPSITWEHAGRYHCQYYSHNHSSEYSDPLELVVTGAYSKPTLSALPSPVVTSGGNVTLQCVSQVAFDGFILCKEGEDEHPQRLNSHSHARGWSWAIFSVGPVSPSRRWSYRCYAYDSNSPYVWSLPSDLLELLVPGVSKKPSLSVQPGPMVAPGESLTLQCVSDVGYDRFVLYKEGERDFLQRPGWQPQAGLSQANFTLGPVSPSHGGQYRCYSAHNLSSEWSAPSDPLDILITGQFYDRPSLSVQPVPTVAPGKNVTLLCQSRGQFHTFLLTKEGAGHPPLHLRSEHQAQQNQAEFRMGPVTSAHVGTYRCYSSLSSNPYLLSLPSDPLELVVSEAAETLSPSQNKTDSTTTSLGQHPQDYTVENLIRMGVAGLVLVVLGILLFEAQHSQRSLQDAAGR

[3] = target: T3, Human LILRA4 on transiently transfected HEK293-6E cells (human, UniProt P59901 24-499); test: as above
T3 construct: whole, on cells; also called hLILRA4
T3 sequence (P59901 24-499): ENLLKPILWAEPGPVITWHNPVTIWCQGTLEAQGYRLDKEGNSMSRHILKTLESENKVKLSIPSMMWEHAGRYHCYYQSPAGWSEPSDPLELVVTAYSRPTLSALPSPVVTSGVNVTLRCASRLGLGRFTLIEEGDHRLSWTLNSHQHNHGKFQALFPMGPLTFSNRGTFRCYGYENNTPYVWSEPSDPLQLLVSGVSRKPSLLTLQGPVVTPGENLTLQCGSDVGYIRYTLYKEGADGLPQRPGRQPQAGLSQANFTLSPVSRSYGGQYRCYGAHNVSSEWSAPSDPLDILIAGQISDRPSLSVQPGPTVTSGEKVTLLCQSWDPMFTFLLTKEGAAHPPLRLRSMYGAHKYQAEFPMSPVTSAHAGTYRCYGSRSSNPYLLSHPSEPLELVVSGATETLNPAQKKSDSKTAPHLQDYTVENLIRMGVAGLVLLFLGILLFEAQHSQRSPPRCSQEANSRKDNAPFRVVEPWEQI

[4] = target: T4, Human LILRA5 on transiently transfected HEK293-6E cells (human, UniProt A6NI73 42-299); test: as above
T4 construct: whole, on cells; also called hLILRA5
T4 sequence (A6NI73 42-299): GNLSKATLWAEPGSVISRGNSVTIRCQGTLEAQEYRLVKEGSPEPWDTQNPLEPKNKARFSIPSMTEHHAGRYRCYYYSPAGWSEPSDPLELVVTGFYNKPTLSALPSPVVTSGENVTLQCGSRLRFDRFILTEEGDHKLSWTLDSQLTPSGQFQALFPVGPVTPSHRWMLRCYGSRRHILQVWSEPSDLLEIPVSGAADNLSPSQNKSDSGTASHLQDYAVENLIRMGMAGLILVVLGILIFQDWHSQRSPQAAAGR

[5] = target: T5, Human LILRA6 on transiently transfected HEK293-6E cells (human, UniProt Q6PI73 24-481); test: as above
T5 construct: whole, on cells; also called hLILRA6
T5 sequence (Q6PI73 24-481): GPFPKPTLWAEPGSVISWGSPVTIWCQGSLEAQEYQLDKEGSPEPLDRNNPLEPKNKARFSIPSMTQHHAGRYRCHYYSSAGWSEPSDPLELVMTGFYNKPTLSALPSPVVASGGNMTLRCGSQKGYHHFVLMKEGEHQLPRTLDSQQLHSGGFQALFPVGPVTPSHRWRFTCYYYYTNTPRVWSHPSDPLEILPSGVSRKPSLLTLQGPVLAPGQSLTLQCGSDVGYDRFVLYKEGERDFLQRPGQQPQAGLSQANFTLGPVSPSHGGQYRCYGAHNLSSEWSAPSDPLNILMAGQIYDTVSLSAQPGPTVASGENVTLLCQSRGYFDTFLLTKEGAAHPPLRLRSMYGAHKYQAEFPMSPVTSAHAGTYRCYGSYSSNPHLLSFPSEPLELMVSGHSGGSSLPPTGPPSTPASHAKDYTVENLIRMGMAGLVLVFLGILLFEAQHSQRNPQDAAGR

[6] = target: T6, Human LILRB1 on transiently transfected HEK293-6E cells (human, UniProt Q8NHL6 24-650); test: as above
T6 construct: whole, on cells; also called hLILRB1
T6 sequence (Q8NHL6 24-650): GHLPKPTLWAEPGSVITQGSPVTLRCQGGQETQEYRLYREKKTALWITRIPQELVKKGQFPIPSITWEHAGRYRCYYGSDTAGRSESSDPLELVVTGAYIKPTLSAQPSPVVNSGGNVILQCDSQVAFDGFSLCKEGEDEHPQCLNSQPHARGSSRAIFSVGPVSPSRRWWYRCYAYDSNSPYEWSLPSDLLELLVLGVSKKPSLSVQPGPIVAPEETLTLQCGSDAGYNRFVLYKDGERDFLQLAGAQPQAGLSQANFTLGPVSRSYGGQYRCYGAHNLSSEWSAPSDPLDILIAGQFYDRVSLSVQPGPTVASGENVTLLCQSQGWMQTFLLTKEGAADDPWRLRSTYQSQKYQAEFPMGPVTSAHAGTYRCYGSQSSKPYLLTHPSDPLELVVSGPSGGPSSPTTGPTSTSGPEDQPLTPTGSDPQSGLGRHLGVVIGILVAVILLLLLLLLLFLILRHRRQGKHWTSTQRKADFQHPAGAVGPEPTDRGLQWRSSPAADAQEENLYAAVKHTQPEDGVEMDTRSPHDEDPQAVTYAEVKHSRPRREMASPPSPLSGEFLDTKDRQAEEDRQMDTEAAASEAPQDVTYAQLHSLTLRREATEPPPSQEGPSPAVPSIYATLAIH

[7] = target: T7, Human LILRB3 on transiently transfected HEK293-6E cells (human, UniProt O75022 24-631); test: as above
T7 construct: whole, on cells; also called hLILRB3

[8] = target: T8, Human LILRB4 on transiently transfected HEK293-6E cells (human, UniProt Q8NHJ6 22-448); test: as above
T8 construct: whole, on cells; also called hLILRB4

[9] = target: T9, Human LILRB5 on transiently transfected HEK293-6E cells (human, UniProt O75023 24-590); test: as above
T9 construct: whole, on cells; also called hLILRB5
T9 sequence (O75023 24-590): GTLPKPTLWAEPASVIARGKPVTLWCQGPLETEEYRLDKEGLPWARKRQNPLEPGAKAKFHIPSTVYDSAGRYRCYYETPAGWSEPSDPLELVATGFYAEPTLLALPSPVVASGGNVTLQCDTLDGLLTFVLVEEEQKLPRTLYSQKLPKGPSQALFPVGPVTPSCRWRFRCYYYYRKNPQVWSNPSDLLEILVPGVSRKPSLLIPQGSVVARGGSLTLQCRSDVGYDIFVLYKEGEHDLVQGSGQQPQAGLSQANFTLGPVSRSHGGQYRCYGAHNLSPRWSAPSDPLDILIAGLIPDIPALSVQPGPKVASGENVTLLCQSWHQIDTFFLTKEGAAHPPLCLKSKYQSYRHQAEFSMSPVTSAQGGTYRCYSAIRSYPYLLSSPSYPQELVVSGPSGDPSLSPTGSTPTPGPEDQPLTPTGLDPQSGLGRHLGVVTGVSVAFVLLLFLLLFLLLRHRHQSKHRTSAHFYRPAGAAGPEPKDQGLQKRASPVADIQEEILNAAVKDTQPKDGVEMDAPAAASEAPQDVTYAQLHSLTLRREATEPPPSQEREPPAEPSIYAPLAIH

[10] = target: T10, Human LILRB2 on transiently transfected HEK293-6E cells (human, UniProt Q8N423 22-597); test: as above
T10 construct: whole, on cells; also called hLILRB2
T10 sequence (Q8N423 22-597): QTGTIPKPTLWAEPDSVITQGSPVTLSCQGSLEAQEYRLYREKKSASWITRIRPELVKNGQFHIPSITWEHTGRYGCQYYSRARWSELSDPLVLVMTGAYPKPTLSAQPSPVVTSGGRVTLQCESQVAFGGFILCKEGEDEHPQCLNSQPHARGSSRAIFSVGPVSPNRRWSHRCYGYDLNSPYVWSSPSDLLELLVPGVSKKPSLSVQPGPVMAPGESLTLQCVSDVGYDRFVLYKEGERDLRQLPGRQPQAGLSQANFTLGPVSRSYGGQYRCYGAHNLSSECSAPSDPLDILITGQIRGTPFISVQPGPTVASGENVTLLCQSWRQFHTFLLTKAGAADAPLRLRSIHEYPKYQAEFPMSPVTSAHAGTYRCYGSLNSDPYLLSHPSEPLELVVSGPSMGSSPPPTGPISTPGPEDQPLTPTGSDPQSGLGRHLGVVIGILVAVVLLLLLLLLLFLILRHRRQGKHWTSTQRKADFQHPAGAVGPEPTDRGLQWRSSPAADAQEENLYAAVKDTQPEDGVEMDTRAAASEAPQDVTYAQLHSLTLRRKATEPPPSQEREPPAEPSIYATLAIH
Experimental: (§1) To determine that the anti-LILRB2 antibodies specifically bind to LILRB2 and not other LILRB and LILRA family members, a cross-reactivity assay was performed. Cross-reactivity of the LILRB2 antibodies to other LILRB proteins was assessed by antibody binding to transiently transfected HEK293-6E cells, measured by flow cytometry. Binding was evaluated to HEK293-6E cells transiently transfected with human LILRB-1, -2, -3, -4, and 5 plasmids (Origene, Nos. RC219949, RC217935, RC211228, RC220932, RC206516) or to cells transiently transfected with human LILRA-1, -2, -4, -5, and -6 plasmids (Origene, Nos. RC210808, RC205626, RC220452, RC212310 RC212965). […] Murine primary antibodies to LILRA and LILRB targets and corresponding isotype controls were used to confirm specific binding of all targets tested (R&D Systems) while an AF647 F(ab′)₂ fragment goat anti-mouse antibody (Jackson ImmunoResearch, No. 115-606-062) was used for the detection of bound positive control antibodies. No binding of B2A-IgG4 or B2A-IgG1 to LILRB-1, -3, -4, or -5 was observed, and no binding of either antibody to LILRA-1, -2, -4, -5, or -6 was observed, confirming specificity of these antibodies.
(§2) Select humanized variant antibodies were tested for their ability to bind other LILRB or LILRA family members, using the method and commercially available positive control antibodies of Example 5.

[11] = target: T1, Human LILRA1 on transiently transfected …; test: as above; remark: listed apart in the source
Experimental: as §1, §2

[12] = target: T2, Human LILRA2 on transiently transfected …; test: as above; remark: listed apart in the source
Experimental: as §1, §2

[13] = target: T3, Human LILRA4 on transiently transfected …; test: as above; remark: listed apart in the source
Experimental: as §1, §2

[14] = target: T4, Human LILRA5 on transiently transfected …; test: as above; remark: listed apart in the source
Experimental: as §1, §2

[15] = target: T5, Human LILRA6 on transiently transfected …; test: as above; remark: listed apart in the source
Experimental: as §1, §2

[16] = target: T6, Human LILRB1 on transiently transfected …; test: as above; remark: listed apart in the source
Experimental: as §1, §2

[17] = target: T7, Human LILRB3 on transiently transfected …; test: as above; remark: listed apart in the source
Experimental: as §1, §2

[18] = target: T8, Human LILRB4 on transiently transfected …; test: as above; remark: listed apart in the source
Experimental: as §1, §2

[19] = target: T9, Human LILRB5 on transiently transfected …; test: as above; remark: listed apart in the source
Experimental: as §1, §2

[20] = target: T11, Human LILRB2 on stably transduced HEK293T cells (human, UniProt Q8N423 22-597); test: flow cytometry, HEK293T cells stably expressing human LILRB2
T11 construct: Lentiviral transduction (G&P Biosciences LTV2992); also called HEK293T-LILRB2; LILRB2-expressing HEK293T cells
T11 sequence (Q8N423 other isoform, or with tags, fused parts or gaps limits assumed): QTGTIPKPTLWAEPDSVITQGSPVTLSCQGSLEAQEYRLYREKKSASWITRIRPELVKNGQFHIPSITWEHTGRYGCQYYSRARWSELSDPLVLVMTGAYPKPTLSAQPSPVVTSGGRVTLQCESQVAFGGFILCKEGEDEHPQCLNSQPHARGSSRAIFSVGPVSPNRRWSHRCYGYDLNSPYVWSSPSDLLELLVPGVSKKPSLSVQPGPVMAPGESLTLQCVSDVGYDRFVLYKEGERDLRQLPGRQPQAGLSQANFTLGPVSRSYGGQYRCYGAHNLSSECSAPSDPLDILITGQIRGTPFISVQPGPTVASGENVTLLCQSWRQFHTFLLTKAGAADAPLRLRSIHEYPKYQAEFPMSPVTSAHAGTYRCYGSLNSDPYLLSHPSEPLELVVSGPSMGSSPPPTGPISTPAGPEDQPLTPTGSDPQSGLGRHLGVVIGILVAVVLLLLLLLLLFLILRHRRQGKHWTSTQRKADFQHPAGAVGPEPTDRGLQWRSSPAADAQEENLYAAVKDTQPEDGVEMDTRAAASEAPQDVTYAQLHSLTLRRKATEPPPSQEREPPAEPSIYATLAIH
Experimental: To confirm binding of LILRB2 antibodies, flow cytometry binding assays were performed using HEK293T cells stably expressing human LILRB2 (Example 3). […] The B2A-IgG1 and B2A-IgG4 chimeras bound the LILRB2-expressing HEK293T cells, with equivalent EC₅₀ values of 0.21 nM and 0.30 nM respectively.

Binder | binding result [1] | binding result [2] | binding result [3] | binding result [4] | binding result [5] | binding result [6] | binding result [7] | binding result [8] | binding result [9] | Bmax (MFI) [10] | Bmax (MFI) [11] | Bmax (MFI) [12] | BMAX [gMFI] [13] | Bmax (MFI) [14] | Bmax (MFI) [15] | Bmax (MFI) [16] | Bmax (MFI) [17] | Bmax (MFI) [18] | Bmax (MFI) [19] | EC50 [20]
B1 | no binding | no binding | no binding | no binding | no binding | no binding | no binding | no binding | no binding | 11000 MFI | 783 MFI | 37.7 MFI | 112 gMFI | 129 MFI | 214 MFI | 41.4 MFI | 154 MFI | 40.3 MFI | 138 MFI | –
B2 | no binding | no binding | no binding | no binding | no binding | no binding | no binding | no binding | no binding | 11300 MFI | 837 MFI | 40.4 MFI | 104 gMFI | 124 MFI | 211 MFI | 41.9 MFI | 163 MFI | 41.4 MFI | 147 MFI | 0.21 nM
B3 | no binding | no binding | no binding | no binding | no binding | no binding | no binding | no binding | no binding | – | – | – | – | – | – | – | – | – | – | 0.3 nM
